assay: yeast display, Sf9 membrane polyspecificity reagent, FACS + sequencing; frameworks hold sequencing errors
Outline: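 Sorting gates, low and high (top ~1%), were placed on anti-HA fluorescence to track expression and on streptavidin fluorescence to track reagent binding. A clone's polyreactivity label is taken from the gate it came out of. The reagent was 10% biotinylated, detergent-solubilized Sf9 membrane, applied for 1 hour at 4 °C to galactose-induced yeast display cells.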

Sequence | polyreactivity (PSR sort gate)
QVQLVESGGALVQAGGSLRLSCAASGGIFSYYAMGWYRQAPGKERELVAAMSWSGTSTYYADSVKGRFTISRDNAKNTVYLQMNSLNQEDTAVYYCNKVTYSRAQYIGGDGYFWGEGTQVTVSS | high polyreactivity
QVQLVESGGALVQAGGSLRLSCAASGIIFNLYAKGWYRPAPGKEMELVAAITSSGTSTYYADSVKGRFTISRDNAKNTVYLQMNSLSPEDTAVYYCAAERGFYYFVEYDYWGQGTQVTVSS | high polyreactivity
QVQLVESGGALVQAGGSLRLSCAASGIILLRYAMGWYRQAPGKERELVAAISYSGGSTYYADSVKGRFTISRDNAKNTVYLQMNSLKPEDTAVYYCNTVGPRRYSYDYWGQGTQVTVSS | high polyreactivity
QVQLVESGGALVQAGGSLRLSCAASGIILYYYAMGWYRQAPGKERELVAAISSGGNTYYADSVKGRFTISRDNAKNTVYLQMNSLKPEDTAVYYCAAVTVIGGEYDYWGQGTQVTVSS | low polyreactivity
QVQLVESGGALVQAGGSLRLSCAASGITFYDNAMGWYRQAPGKERELVAGISYSGGRTYYADSVKGRFTISRDNAKNTVYLQMNSLIPEDTAVDYCNARFGKYRSRQGYYYWGQGTQVTVSS | high polyreactivity
QVQLVESGGALVQAGGSLRLSCAASGITFYFYAMGWYIHAPGKEWELVAAIRSSGDSTYYADSVKGRFTISRDNAKNTVYLQMNSRKPEDTAVYYCAAYSHHQFSRSEYYYWGQGTQVTVSS | low polyreactivity
QVQLVESGGALVQAGGSLRLSCAASGLIFTAYAMGWYRQAPGKERELVAAIDWRGGSTSYADSVKGRFTISRDTAKNTVYLQMNSLKPEDTAVYYCAADYYSKYVRFGYWGQGTQVTVSS | high polyreactivity
QVQLVESGGALVQAGGSLRLSCAASGRIFGGYAMGWYRQAPGTERELVAAISSGGRTYYADSVKGRFTISRDNAKNTVYLQMNSLKPEDTAVYYCNAYTRGFRLGYWGQGTQVTVSS | high polyreactivity
QVQLVESGGALVQAGGSLRLSCAASGRIFYKYVMGWYRQAPGKERELVATITSGGSTYYADSVKWRFTISRDNAKNTVYLQMNSLKPEDTAVYYCAARKYYSRAYDYWGQGTQVTVSS | high polyreactivity
QVQLVESGGALVQAGGSLRLSCAASGRTFNYNAMGWYRQAPGKERELVAAITSGASTNYADSVKGRFTISRDNAKNTVYLQMNSLKPEDTAVYYCNAEGYVYYLQEDYWGQGTQVNVSS | low polyreactivity
QVQLVESGGALVQAGGSLRLSCAASGRTFNYYAKGWSRQAPGKERELVAAITNGVSTKYADSVKGRFTISRDNAKNTVYLQMNSLKPEDTAVYYCAAQRLYGYRLYNYWGQGTQVTVSS | high polyreactivity
QVQLVESGGALVQAGGSLRLSCAASGRTFYSYAMGWYRQAPGKERELVAAINRGASTYYADSVKGRFTISRDNAKNTDYFQMKSLKPEDTAFYYCGARLYGRHYGYWGQGTQVTVSS | high polyreactivity
QVQLVESGGALVQAGGSLRLSCAASGSIFKKYAMGWYRPAPGKERELVAAITRGTYYADSVKGRFTISRVNAKNTVYLQMNSLKPEDTAVYYCNREYWGRGYYRVRGEYDYWGQGTQFTVSS | low polyreactivity
QVQLVESGGALVQAGGSLRLSCAASGSIFPANPMGWYRQAPGKEWEFVAAINWSTGTTYYADSVKGRFTISRDNGKNTVYLQMNSLKPEDTAVYYFNASDQAKYDYWGQGTQVTVSS | low polyreactivity
QVQLVESGGALVQAGGSLRLSCAASGSIFRWTAMGWYRQAPGKERVLVAAISKSGASTYYADSVKGRFTISRDNAKNTVYLQMNSLKPEDTAVYYCNRVYLGYFRYDYWGQGTQVTVSS | high polyreactivity
QVQLVESGGALVQAGGSLRLSCAASGSIFSEYAMGWYRQAPGKERELVAAISRSGGTTYYADSVKGRFTISRDNAKNTVYLQMNSLKPEDTAVYYCAARYFRGSYPMGYWGQGTQVTVSS | high polyreactivity
QVQLVESGGALVQAGGSLRLSCAASGSIFSSYAMGWYRQAPGKERELVAAISGSGDSTYYADSVKGRFTISRDNAKNTVYLQMNSLKPEDTAVYYCNAVYAFNGYDYWGQGTQVTVSS | low polyreactivity
QVQLVESGGALVQAGGSLRLSCAASGSTFSYNAMGWYSQAPGKERELVAAISSRGSSTYYADSVKGRFTISRDNAKNTVYFQINSLKPEDTAVYDCAARSYWGGLRYDYWGQGTQVTVSS | high polyreactivity
QVQLVESGGALVQAGGSLRLSCAASGSTVKYYAMGWYRQAPGKERELVATSSSGGSTNYADSVKRRFTISRDNAKNTVYLQRNSLKPEDTAVYYCAAYSTWRRIQFWGYNYWGQGTQVTVSS | high polyreactivity
QVQLVESGGALVQAGGSLRLSSAASVSIFTINAMGWYRQAPGKERELVAAISWSGAHTYYADSVKGRFTISRDNAKNTVYVQMNSLKPEDTAVYYCATGYNYLDRNTGYVHRFDYWGQGTQVTVSS | low polyreactivity
QVQLVESGGALVQARGSLRLSCAASGRIFGGNAMGWYRHAPGKERDLVADISYGGGSTNYADSVKGRFTISRDNAKNTVYLQMNSLKPADTAVYYCARDAWNTDGAYIGGDYDYWGQGTKVTVSS | low polyreactivity
QVQLVESGGALVQARGSLRLSCAASGRTFQIYAKGWDRQGHGKEMELVARITGVGSTNYADSVKGRFTISRDNAKNTVYLQMNSLKPEDTAVYYCAAYWILNNYEMYYWGQGTQVTVSS | low polyreactivity

Sequence | polyreactivity (PSR sort gate)
QVQLVESGGCIVQAGGSLRLSCAASGITFLSNPMGWYSQAPGKERELVAAIDCRGDSTYYADSVKGRFTISRDNAKNTVYLQMNSLKPEDTAVYYCNADISGSGQWDGYDYWGQGTQVSVSS | low polyreactivity
QVQLVESGGCIVQAGGSLRLSCADSGSIFDWYAMVWYRQAPGKERELVAAINEGGGSTYYADSVKGRFTISRDNANNTVYLQMNSLKPEDHAVYYCAAGDYYLQDNYWGQGTQVTVSS | low polyreactivity
QVQLVESGGCLVKAGGSLRLSCAASGSTFSDNAIGWSRQAPGKERELVAAINYSDGSTNYADSVKGRFTISRDNAKNTVYLQINSQQPEDTAVYYCAVDIYFWSYGWWGPYDYWGQGTQVTVSS | low polyreactivity
QVQLVESGGCLVPAGGSLRLSCAASGSIFSYYAMGWYRQAPGKERELVAAITVRGGSTYYADSVKGRFTISRDNAKNTVYLQMNSLKPEDTAVYYCAADWLDESFSYGPYYYWGQGTQVTVSS | low polyreactivity
QVQLVESGGCLVQAGGILRLSCAASGSTFWIYAMGWYRQAPGKERELVAAITLRSGSTYYADSVKGRYTISRDNAKNTVFLQMNSLKPEDTAVYYCATDSWGVDRPNYNYWGQGTQVTVSS | low polyreactivity
QVQLVESGGCLVQAGGRLRLSCAASGFIFGRYAMGWYRQAPGKERELVAAITWSGGSTYYADSVKGRFTISRDNAKNTVYLQMNSLKPQDTAVYYCAAYAYAPRDGYGWRKYRFYYWGQGTQVTVSS | high polyreactivity
QVQLVESGGCLVQAGGRLRLSCAASGSTFRSYTMVWYRQAPGKERELVADINGTGGSTYYADSVKGRFTISRDNAKNTVYLHMNSLKPEDTAVYYCAADGYFRTVTSGWALRMGYWGQGTQVTVSS | high polyreactivity
QVQLVESGGCLVQAGGSHRLSCAASGRTFGYNAMGWYSQAPRKERELVAVIRSGGSTYYADSVKGRYTISRDNAKNTVYFQMNSLKPEDTAVYYCAATGLYNVTSPYSYKYDYWGQGTQVTVSS | low polyreactivity
QVQLVESGGCLVQAGGSLRLIWDASGSIFKRYAMGWYRQAPGKERELVAAISYSGGSTYYADSVKGRFTISRDNAKNTVYLQMNSLKPEDTAVYYCAKRSTSRGYDYWGQGTQVTLSS | high polyreactivity
QVQLVESGGCLVQAGGSLRLSCAACGITFSGYDMGWYRQAPGKERELVADITISTGSTYYADSVKGRFTISRDNAKNTVYLQMNSLKPEDTAVYYCAASPFDYWYDYYGLYKEYYYWRQGTQVTVSS | low polyreactivity
QVQLVESGGCLVQAGGSLRLSCAASGFIFAYNAMGWYRQAPGKERELVAAISFSGGSTYYADSVKGRFTISRDTANNTVYLQMNSLKPEDTAVYYCAAVRYYWGQGTQVTVSS | high polyreactivity
QVQLVESGGCLVQAGGSLRLSCAASGFIFSYYTMGWYRQAPGKERALVAAISYSGGSTYYADSVKGRFTISRDNAKKTVYLQMNSLKPEDTAVYYCAAETYGYYVIRYDYWGQGTQVTVSS | high polyreactivity
QVQLVESGGCLVQAGGSLRLSCAASGFTFDIYAMGWYRQAPGKERELVATISRSGGTTYYADSVKGRFTISRDNAKNTVYLQMNCLKPEDTAVYYCAAAAYYYRYRYRMYYWGQGTQVTVSS | high polyreactivity
QVQLVESGGCLVQAGGSLRLSCAASGFTFYWYTMGWYRQAPGKERELVAAISRSGGDTDYADSVKGRFTISRDTAKNTVYLQMDSLQPEDTAVYYCNAGYFITHNYKYDYGGQGTQVTVSS | low polyreactivity
QVQLVESGGCLVQAGGSLRLSCAASGFTIWPNAMGWYRQAPGKERELVAAINWSGGATYYADSVKGRFTISRDNAKNSVYLHMNSLKPEDTAVYYCAAFSYDWYGGDEYWGKGTQVTVSS | low polyreactivity
QVQLVESGGCLVQAGGSLRLSCAASGIIFQGYVMGWYRQAPGKEREFVAAISRSGGTTFYADSVKGRFTISRDNAKNTVYLQMNSLKPVDTAVYSCNRARLGRPGYDYWGQGTQVTVTS | high polyreactivity
QVQLVESGGCLVQAGGSLRLSCAASGLIFRLYAMGWYRQAPGKERELVAAISVSGAITYYADSVKGRFTISRDKAKNTVYLQMNSLKPEDTAVYYCNAEAVFGRDGYVYWEVDYWGQGTQVTVSS | low polyreactivity
QVQLVESGGCLVQAGGSLRLSCAASGLTFAENAMGWYREAPGKERELVAAISASGGSTYYADSVKGRFTSSRDNAKNTVYLQMNSLKPEDTAVYYCATRVAFLWPRRDYDYWGQGTQVNVSS | low polyreactivity
QVQLVESGGCLVQAGGSLRLSCAASGRIFGSYAMGWYRHPPGKERELVAAISGSGGRTYYADSVKGRFTISRDNAKNTVYLQMNSLKPEDTAVYYCAADSQSFGYGYWGQGTQVTVSS | high polyreactivity
QVQLVESGGCLVQAGGSLRLSCAASGRIFGYYARGWYRQSAGKERELVAAITRNGGSTYYADSVKGRFTISRDNAKNTVYIQMISLKPVDTAVYYCYATKGGGRGYWCQGTQVTVSS | high polyreactivity
QVQLVESGGCLVQAGGSLRLSCAASGRIFPGYAMGWYRQAPGKEREFVAAITASGGTTYYADSVKGRFTISRDNAKNTVYLQMNSLKPEDTAVYYCAKYRYTVAGYNYWGQGTQVTVSS | high polyreactivity
